Patent publication US10765761B2, “Nucleic acid condensing peptide, nucleic acid condensing peptide set, nucleic acid delivery carrier, nucleic acid delivery method, cell production method, cell detection method and kit” (KABUSHIKI KAISHA TOSHIBA, priority 2016, dated 2020)

Key:
[1] = system: plasmid vector (pDNA); assay: Gel retardation assay: condensability and dissociation with M9, Example 11; type: binding
Protocol: Each of the peptides was dissolved in 10 mM-HEPES (pH: 5.4) and several peptide solutions having different peptide concentrations were prepared.
For M9, one peptide solution was prepared to have a peptide concentration of: (1) 0.24 mg/ml. For mHP-1 and mHP-2, peptide solutions were prepared to have a peptide concentration of 0.24 mg/ml and a mixture ratio between mHP-1 and mHP-2 of 1:3, and 1 μL of M9 was added to one to prepare a peptide solution (2), and M9 was not added to one to prepare a peptide solution (3). Moreover, the plasmid vector (pDNA) was diluted with purified water to prepare a nucleic acid solution having a pDNA concentration of 0.15 mg/ml. […]
As samples for the condensability evaluation, five sets of 5.5 μL of 10 mM-HEPES (pH: 5.4) were prepared, and 4.5 μL of the respective peptide-nucleic-acid solutions described above were added to prepare mixtures. […] After the electrophoresis, the nucleic acid dyed with ethidium bromide was visualized by UV irradiation, and the nucleic acids condensed by the peptide and the nucleic acid dissociating with the peptide and moving into the gel were detected.
FIG. 15 is a photograph showing the agarose gel subjected to UV irradiation. […] When an integrated band with a large molecular weight, which strongly shines is observed in the left lane, it was evaluated as a high condensability.

[2] = system: plasmid; assay: Amount of encapsulation of plasmid in liposome (Quant-iT PicoGreen dsDNA assay kit), Example 3; type: physicochemical
Protocol: (§1) COATSOME/SS-20 (Nippon Oil & Fats), DOPE, cholesterol and DMG-PEG were dissolved into ethanol at a molar ratio of 5:3:1:0.3, to obtain a lipid solution. Two sets of lipid solutions (0.5 ml) put into tubes were prepared, and 0.5 ml of peptide-nucleic-acid solutions (8) (mHP-1) and (16) (mHP-3) of Example 1 were dropped thereto while stirring each lipid solution, thereby forming liposomes. 9 ml of 10 mM-HEPES (pH: 5.3) was added to each of the liposome solutions to make a total amount of 10 ml (each liposome solution will be referred to as “Complex” hereinafter). Further, on an assumption that the liposome is taken into an organism, and liposome solutions (which will be referred to as “HEPES replacement”) in which ethanol, which is the solvent of Complex is substituted by HEPES were produced. The HEPES replacements were produced by condensing each solution of Complex to 1.5 ml with an ultrafiltration film for 300 kDa, adding 8.5 ml of 100 mM-HEPES (pH: 7.4) to each, performing ultrafiltration, thereafter substituting the solvent with 10 mM-HEPES (pH: 7.4), and finally condensing to 0.5 ml. Further, the HEPES replacements were filtered for sterilization with a filter with a pore diameter of 0.45 μm to prepare solutions (which will be referred to as “0.45 μm” hereinafter).
(§2) The “peptide-nucleic-acid solution”, “HEPES substituent” and “0.45 micrometer”, each of which contain the protamine, mHP-1 or mHP-3 prepared as above were examined in terms of average particle diameter of liposome, Zeta potential and amount of encapsulation of plasmid. The average particle diameter and Zeta potential were measured using a zetasizer. The amount of encapsulation of plasmid was measured using a Quant-iT PicoGreen (registered trademark) dsDNA assay kit.

[3] = system: plasmid vector (pDNA); assay: Average particle diameter and Zeta potential of peptide-nucleic-acid complexes (zetasizer), Example 1; type: physicochemical
Protocol: The condensability of the nucleic acid by the peptide of the embodiment and the potential of the peptide-nucleic-acid complex were evaluated.
The peptides were each dissolved in 10 mM of HEPES (pH: 5.3) to prepare several peptide solutions having different peptide concentrations.
For the protamine, three peptide solutions were prepared to have peptide concentrations of: (1) 2.1 mg/ml, (2) 2.4 mg/ml and (3) 2.7 mg/ml. For the mHP-4, four peptide solutions were prepared to have peptide concentrations of: (4) 1.8 mg/ml, (5) 2.1 mg/ml, (6) 2.4 mg/ml and (7) 2.7 mg/ml. For the mHP-1, three peptide solutions were prepared to have peptide concentrations of: (8) 2.1 mg/ml, (9) 2.4 mg/ml and (10) 2.7 mg/ml. For the mHP-2, five peptide solutions were prepared to have peptide concentrations of: (11) 1.2 mg/ml, (12) 1.5 mg/ml, (13) 2.1 mg/ml, (14) 2.4 mg/ml and (15) 2.7 mg/ml. For the mHP-3, three peptide solutions were prepared to have peptide concentrations of: (16) 2.1 mg/ml, (17) 2.4 mg/ml and (18) 2.7 mg/ml. Further, plasmid vector (pDNA) was diluted with purified water to prepare a nucleic acid solution having a pDNA concentration of 3.0 mg/ml.
18 sets of nucleic acid solutions (90 μL) put in tubes were prepared and the peptide solutions (1) to (18) (90 μL) described above were dropped respectively therein and mixed while stirring each, to condense the nucleic acids. Thus, the peptide-nucleic-acid complexes were obtained. Then, the mixtures were each diluted with purified water to 25-fold to produce peptide-nucleic-acid solutions. Further, as references, samples containing only each respective peptide were also prepared without adding the nucleic acid solutions thereto.
The average particle diameter and Zeta potential of each of the peptide-nucleic-acid complexes were investigated using the peptide-nucleic-acid solutions. The average particle diameter and Zeta potential were measured using a zetasizer.

[4] = Average particle diameter and Zeta potential of liposome (zetasizer), Example 3; type: physicochemical
Protocol: as §1, §2

[5] = system: plasmid vector (pDNA); assay: Average particle diameter, polydispersity index and Zeta potential of peptide-nucleic-acid complexes, Example 6; type: physicochemical; details: peptide-nucleic-acid complex, total peptide 0.24 mg/ml, pDNA 0.15 mg/ml
Protocol: Each of the peptides was dissolved into 10 mM-HEPES (pH: 5.4) to prepare several peptide solutions having different peptide concentrations.
For the mHP-1, one peptide solution was prepared to have a peptide concentration of (1) 0.24 mg/ml. For the mHP-2, one peptide solution was prepared to have a peptide concentration of (2) 0.24 mg/ml. For the mHP-1 and mHP-2, five peptide solutions were prepared to have a total peptide concentration of 0.24 mg/ml and mixture ratios between mHP-1 and mHP-2 of: (3) 1:1, (4) 1:3, (5) 1:5, (6) 1:7 and (7) 1:9. Meanwhile, plasmid vector (pDNA) was diluted with purified water to prepare a nucleic acid solution having a pDNA concentration of 0.15 mg/ml.
The peptide solutions (1) to (7) (100 μL) were prepared in tubes and the nucleic acid solution (200 μL) was dropped and mixed thereto while stirring each solution to condense the nucleic acids, and thus peptide-nucleic-acid complexes were obtained.
The peptide-nucleic-acid complexes were investigated in terms of average particle diameter, polydispersity index and Zeta potential using the respective peptide-nucleic-acid solutions. The average particle diameter, polydispersity index and Zeta potential were measured using a zetasizer.

[6] = Average particle diameter, polydispersity index and Zeta potential of liposome (Complex), Example 8; type: physicochemical
Protocol: COATSOME/SS-20 (Nippon Oil & Fats), DOPE, cholesterol and DMG-PEG were dissolved into ethanol at a molar ratio of 5:3:1:0.3, to obtain a lipid solution. Five sets of 50 μL of lipid solutions put into tubes were prepared, and 50 μL of peptide-nucleic-acid solutions (1) to (4) and (7) of Example 6 were dropped thereto while stirring each lipid solution, thereby forming liposomes. 400 μL of 10 mM-HEPES (pH: 5.4) was added to each of the liposome solutions to make a total amount of 500 μL (this liposome solution will be referred to as “Complex” hereinafter).
The average particle diameter, polydispersity index and Zeta potential of liposome were investigated using the Complex. The average particle diameter, polydispersity index and Zeta potential were measured using a zetasizer.

[7] = pDNA/peptide 1/0.7 (peptide conc. 2.1 mg/mL)
[8] = pDNA/peptide 1/0.8 (peptide conc. 2.4 mg/mL)
[9] = pDNA/peptide 1/0.9 (peptide conc. 2.7 mg/mL)
[10] = peptide solely, no nucleic acid (Reference)
[11] = pDNA/peptide 1/0.6 (peptide conc. 1.8 mg/mL)
[12] = pDNA/peptide 1/0.4 (peptide conc. 1.2 mg/mL)
[13] = pDNA/peptide 1/0.5 (peptide conc. 1.5 mg/mL)

What does the source list for “GNQSSNFGPMKGGNFGGRSSGPYGGGGQYFAKPRNQGGYGGGKCRGKVPGKYGKG [M9, third nucleic acid condensing peptide comprising M9 domain of hnRNP A1]”?
influence on condensability or dissociation of nucleic acid by mixed mHP-1 and mHP-2 peptide solution ([1]; M9 added to mHP-1:mHP-2 1:3 peptide solution (FIG. 15)): does not influence the condensability or dissociation; nucleic acid condensability ([1]; M9 used solely, 0.24 mg/ml, 0.8% agarose gel (FIG. 15)): does not exhibit nucleic acid condensability

With “PRRRRSSSRPIRRRRPRRASRRRRRRGGRRRR (salmon) [Protamine sequence, reference compound]” as the sequence, how does the Plasmid inclusion amount ([2]; 0.45 μm filtered) read?
The Plasmid inclusion amount was 7.97 µg/mL.

And the Plasmid inclusion amount ([2]; HEPES substitution)?
Its Plasmid inclusion amount is 12.68 µg/mL.

And the “Average particle diameter (zAve)” value [3, 7]?
The value was 136.5 nm.

What about the Zeta potential [3, 7] of the same sequence?
Its Zeta potential is −27.8 mV.

What about the “Average particle diameter (zAve)” value [3, 8] of the same sequence?
Its value is 135.9 nm.

What about the Zeta potential [3, 8] of the same sequence?
Its Zeta potential is −24.9 mV.

What about the “Average particle diameter (zAve)” value [3, 9] of the same sequence?
The value was 139.6 nm.

What about the Zeta potential [3, 9] of the same sequence?
The Zeta potential was −29.5 mV.

And the “Average particle diameter (zAve)” value [3, 10]?
Its value is 711.3 nm.

And the Zeta potential [3, 10]?
The Zeta potential was 28.1 mV.

What about the “Average particle diameter (zAve)” value ([4]; Peptide-nucleic acid solution) of the same sequence?
Its value is 167.8 nm.

And the Zeta potential ([4]; Peptide-nucleic acid solution)?
The Zeta potential was −41.30 mV.

What about the “Average particle diameter (zAve)” value ([4]; liposome, 0.45 μm filtered) of the same sequence?
The value was 235.5 nm.

And the Zeta potential ([4]; liposome, 0.45 μm filtered)?
Its Zeta potential is −0.72 mV.

And the “Average particle diameter (zAve)” value ([4]; liposome, HEPES substitution)?
The value was 392.2 nm.

What about the Zeta potential ([4]; liposome, HEPES substitution) of the same sequence?
The Zeta potential was −0.47 mV.

Which results are given for “RRRRRRGGRRRRRR (Comperative example of nucleic acid condensing peptide) [mHP-4]”?
Average particle diameter (zAve) [3, 11]: 130.9 nm; Zeta potential [3, 11]: −23.8 mV; Average particle diameter (zAve) [3, 7]: 141.2 nm; Zeta potential [3, 7]: −30.7 mV; Average particle diameter (zAve) [3, 8]: 323.4 nm; Zeta potential [3, 8]: 28.6 mV; Average particle diameter (zAve) [3, 9]: 212.2 nm; Zeta potential [3, 9]: 33.0 mV; Average particle diameter (zAve) [3, 10]: 1083.0 nm; Zeta potential [3, 10]: 39.7 mV

For “RRRRRRYYRQRQRGGRRRRRR (Comperative example of nucleic acid condensing peptide) [mHP-2]”, which “Average particle diameter (zAve)” value [5] is on record?
The value was 169.1 nm.

What about the “Polydispersity index (PDI)” value [5] of the same sequence?
Its value is 0.285.

What about the Zeta potential [5] of the same sequence?
The Zeta potential was −34.1 mV.

And the “Average particle diameter (zAve)” value [3, 12]?
Its value is 141.8 nm.

What about the Zeta potential [3, 12] of the same sequence?
The Zeta potential was −27.7 mV.

And the “Average particle diameter (zAve)” value [3, 13]?
The value was 139.8 nm.

What about the Zeta potential [3, 13] of the same sequence?
Its Zeta potential is −17.7 mV.

What about the “Average particle diameter (zAve)” value [3, 7] of the same sequence?
Its value is 184.0 nm.

And the Zeta potential [3, 7]?
Its Zeta potential is 27.3 mV.

What about the “Average particle diameter (zAve)” value [3, 8] of the same sequence?
Its value is 159.0 nm.

And the Zeta potential [3, 8]?
Its Zeta potential is 21.6 mV.

And the “Average particle diameter (zAve)” value [3, 9]?
Its value is 158.6 nm.

What about the Zeta potential [3, 9] of the same sequence?
The Zeta potential was 34.2 mV.

What about the “Average particle diameter (zAve)” value [3, 10] of the same sequence?
The value was 321.0 nm.

What about the Zeta potential [3, 10] of the same sequence?
The Zeta potential was 50.5 mV.

And the “Average particle diameter (zAve)” value [6]?
The value was 250.0 nm.

What about the “Polydispersity index (PDI)” value [6] of the same sequence?
Its value is 0.092.

What about the Zeta potential [6] of the same sequence?
The Zeta potential was 36.2 mV.
